Measured values: patent publication US20240043512A1

The binders below were run against IM-CA22 (assay: competition ELISA: 0.5 µg/mL peptide added to prevent the binding of AS-SPIK with IM-CA22; inhibition rate from OD value with vs without peptide).
Sequence of IM-CA22 (VH, as listed by the source, chain 1 of 2): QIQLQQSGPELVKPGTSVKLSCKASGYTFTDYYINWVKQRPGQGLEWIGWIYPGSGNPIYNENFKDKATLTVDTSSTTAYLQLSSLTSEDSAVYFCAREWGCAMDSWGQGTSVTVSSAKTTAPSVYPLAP
Sequence of IM-CA22 (VL, as listed by the source, chain 2 of 2): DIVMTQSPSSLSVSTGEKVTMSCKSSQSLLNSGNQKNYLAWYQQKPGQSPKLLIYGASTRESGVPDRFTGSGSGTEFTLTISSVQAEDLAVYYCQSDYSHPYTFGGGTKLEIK

Row | Inhibition % [%] | Binder
1 | 6 | SLSGNTGAD [SPIK7]
2 | 6 | LSGNTGADS [SPIK6]

Second part, the binder before the results:

Row | Binder | Inhibition % [%]
3 | GNTGADSLG [SPIK4] | 6
4 | SGNTGADSL [SPIK5] | 5
